Consider 10 compounds from article PMC12669672, “Structural insights into selective and dual antagonism of EP2 and EP4 prostaglandin receptors” (The EMBO Journal, 2025).

“And” between values parts separate entries of the source, which are not always exact repeats. Identical values can stand only once.

Series [1] concerns WT and mutant EP2 receptors. Put plainly: Cell-surface expression, FACS with anti-FLAG FITC antibody. The arrangement: species or system human. As to conditions: single experiments 1st-3rd. The method, then:
Cell-surface expression levels of both wild-type and mutant receptors were assessed using a fluorescence-activated cell sorting (FACS) assay. Briefly described, AD293 cells expressing FLAG-tagged EP2 or EP4 receptors were collected 24 h post-transfection. These cells were then incubated with a mouse anti-FLAG FITC-conjugated antibody (Sigma) at a 1:200 dilution for 2 h at 4 °C in a dark environment. Subsequently, cells were washed with 100 µL of PBS. Surface expression levels were quantified by measuring the fluorescence intensity of FITC using a Guava® easyCyte flow cytometer. Data were normalized relative to the expression levels of the wild-type receptors. These experiments were conducted in triplicate, and the results were expressed as mean ± S.E.M.

Series [2] has as its target EP2 WT (Homo sapiens, UniProt P43116). Put plainly: GloSensor cAMP assay, PGE2 induced cAMP signaling (activation). Type of series: cell-based. Set-up: The full-length EP2 or EP4 was cloned into the pcDNA3.1 vector (Invitrogen), incorporating an N-terminal FLAG tag; expressed in transfected cells; host or cells: AD293. The method, then: (§1) The full-length EP2 or EP4 was cloned into the pcDNA3.1 vector (Invitrogen), incorporating an N-terminal FLAG tag. AD293 cells were seeded in six-well plates containing DMEM supplemented with 10% dialyzed FBS 1 day prior to transfection. Following overnight growth, cells were transfected with a 1:1 ratio of receptor construct and GloSensor22F cAMP biosensor (Promega) plasmids.
(§2) Twenty-four hours post-transfection, the cells were transferred to CO2-independent media containing 2% GloSensor cAMP Reagent (Promega) and distributed into 384-well assay plates at a density of 4000 cells per well in 10 μL. […] The plates were then incubated at 37 °C for an additional hour before luminescence measurements were taken using an EnVision plate reader.
(§3) Data analysis was performed using GraphPad Prism software v8.0.1. A nonlinear regression analysis, employing a sigmoidal dose–response model, was conducted to determine the Emax values and half-maximum inhibitory concentrations (IC50) for each compound tested.

Series [3] concerns the target T1, EP2-D311A (Homo sapiens, UniProt P43116, D311A).
T1 construct: The full-length EP2 or EP4 was cloned into the pcDNA3.1 vector (Invitrogen), incorporating an N-terminal FLAG tag; expressed in transfected cells; host or cells: AD293
The series is described as above. Format: cell-based. The method, then: as §1, §2, §3

The target in series [4] is T2, EP2-F273A (Homo sapiens, UniProt P43116, F273A).
T2 construct: The full-length EP2 or EP4 was cloned into the pcDNA3.1 vector (Invitrogen), incorporating an N-terminal FLAG tag; expressed in transfected cells; host or cells: AD293
T2 sequence (P43116 whole entry F273A): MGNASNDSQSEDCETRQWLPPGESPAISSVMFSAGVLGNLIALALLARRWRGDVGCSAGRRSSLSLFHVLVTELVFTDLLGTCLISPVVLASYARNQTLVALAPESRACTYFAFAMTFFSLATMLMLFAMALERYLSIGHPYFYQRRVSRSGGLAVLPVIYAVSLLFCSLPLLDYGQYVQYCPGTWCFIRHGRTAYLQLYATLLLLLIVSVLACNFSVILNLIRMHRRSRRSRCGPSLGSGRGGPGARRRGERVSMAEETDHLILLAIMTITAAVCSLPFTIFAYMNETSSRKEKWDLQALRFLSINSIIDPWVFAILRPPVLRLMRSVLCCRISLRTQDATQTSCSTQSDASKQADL
The series is described as above. Type of series: cell-based. Here is the method:
as §1, §2, §3

The mark [5] stands for this setting: single experiments 1st-3rd, Appendix Fig. S6A.
Where [6] appears, read: 1 h, PGE2 log([M]) -7, single experiments 1st-3rd, Fig. 2D, read-out: % cAMP activity (normalized to WT).

EP2 WT, sequence (P43116 whole entry): as the sequence (P43116 whole entry F273A) above, with A273F counted along it
T1 sequence (P43116 whole entry D311A): as the sequence (P43116 whole entry F273A) above, with A273F, D311A counted along it

Regarding EP2 W186A, the “Surface expression ( 100% WT)” value in series [1] is 116.07% and 83.36% and 84.86%. For EP2 WT, the “Surface expression ( 100% WT)” value in series [1] was 104.67% and 99.81% and 95.51%. Take EP2 M116A: the “Surface expression ( 100% WT)” value in series [1] is 99.63% and 105.23% and 100.56%. On the same count and under the same terms, in the case of EP2 S308A it was 115.51% and 112.90% and 88.41%. In the case of EP2 S86A, in series [1], the “Surface expression ( 100% WT)” value was 89.91% and 90.65% and 110.47%. Regarding EP2 T82A, the “Surface expression ( 100% WT)” value in series [1] is 106.36% and 116.26% and 103.74%. On to `CCCCC[C@H](O)/C=C/[C@H]1[C@H](O)CC(=O)[C@@H]1C/C=C\CCCC(=O)O` [PGE2, Prostaglandin E2], for which the remaining activity at 0.0001 µM in series [2] (1 h, PGE2 log([M]) -10, single experiments 1st-3rd, Fig. 2D, read-out: % cAMP activity (normalized to WT)) amounted to 16.5%. Further, the Emax turned out to be 100 ± 3.9% in series [2] (mean ± S.E.M., n = 3); 92.4 ± 3.9% in series [3] (mean ± S.E.M., n = 3); 117 ± 2.9% in series [4] (mean ± S.E.M., n = 3). The “PGE2 cAMP activity (∆pIC50 from EP2 WT)” value is 0.007 and -0.051 and 0.045 in series [2] (setting [5]); -1.566 and -1.416 and -1.487 in series [3] (setting [5]). Further, the remaining activity at 0.1 µM in series [3] (setting [6]) stood at 91.9%; in series [4] (setting [6]) it was 32.4%. Besides, the remaining activity at 1 µM in series [4] (1 h, PGE2 log([M]) -6, single experiments 1st-3rd, Fig. 2D, read-out: % cAMP activity (normalized to WT)) is 96.2%. Consider EP2 S28A, for which, in series [1], the “Surface expression ( 100% WT)” value was 106.92% and 107.85% and 105.61%. For EP2 S305A, the “Surface expression ( 100% WT)” value in series [1] was 98.88% and 97.38% and 93.83%. Same read-out and setting: in the case of EP2 E23A it was 92.71% and 100.19% and 95.51%.

A word on the Emax: it is the maximal effect, on the per cent scale that the assay sets.
